Data as given in patent US20150232576A1.

Tests used:
[1] = target: Phosphorylated His-p38 (p38 MAP kinase) (UniProt Q16539); test: BLI, immobilised p38, k2/k1
[2] = target: Phosphorylated His-p38 (p38 MAP kinase) (UniProt Q16539); test: optical biosensing (BLI), summary statement
[3] = target: Phosphorylated His-p38 (p38 MAP kinase) (UniProt Q16539); test: refers to the biosensor experiments described above
[4] = target: Phosphorylated His-p38 (p38 MAP kinase) (UniProt Q16539); test: BLI, biotinylated p38 on streptavidin sensors, 696 nM eNOS analyte
[5] = target: Phosphorylated His-p38 (p38 MAP kinase) (UniProt Q16539); test: BLI, immobilised p38, eNOS analyte, two-component sequential model
[6] = target: Phosphorylated His-p38 (p38 MAP kinase) (UniProt Q16539); test: BLI, immobilised p38, from the pseudo first order rate at 232 nM eNOS
[7] = target: Phosphorylated His-p38 (p38 MAP kinase) (UniProt Q16539); test: BLI, biotinylated p38 on streptavidin sensors, 696 nM eNOS, 300 s dissociation in buffer
[8] = target: Phosphorylated His-p38 (p38 MAP kinase) (UniProt Q16539); test: BLI, immobilised p38, 696 nM nNOS analyte, compared with eNOS

Chain of endothelial nitric oxide synthase (eNOS), purified, unphosphorylated (P29473 whole entry): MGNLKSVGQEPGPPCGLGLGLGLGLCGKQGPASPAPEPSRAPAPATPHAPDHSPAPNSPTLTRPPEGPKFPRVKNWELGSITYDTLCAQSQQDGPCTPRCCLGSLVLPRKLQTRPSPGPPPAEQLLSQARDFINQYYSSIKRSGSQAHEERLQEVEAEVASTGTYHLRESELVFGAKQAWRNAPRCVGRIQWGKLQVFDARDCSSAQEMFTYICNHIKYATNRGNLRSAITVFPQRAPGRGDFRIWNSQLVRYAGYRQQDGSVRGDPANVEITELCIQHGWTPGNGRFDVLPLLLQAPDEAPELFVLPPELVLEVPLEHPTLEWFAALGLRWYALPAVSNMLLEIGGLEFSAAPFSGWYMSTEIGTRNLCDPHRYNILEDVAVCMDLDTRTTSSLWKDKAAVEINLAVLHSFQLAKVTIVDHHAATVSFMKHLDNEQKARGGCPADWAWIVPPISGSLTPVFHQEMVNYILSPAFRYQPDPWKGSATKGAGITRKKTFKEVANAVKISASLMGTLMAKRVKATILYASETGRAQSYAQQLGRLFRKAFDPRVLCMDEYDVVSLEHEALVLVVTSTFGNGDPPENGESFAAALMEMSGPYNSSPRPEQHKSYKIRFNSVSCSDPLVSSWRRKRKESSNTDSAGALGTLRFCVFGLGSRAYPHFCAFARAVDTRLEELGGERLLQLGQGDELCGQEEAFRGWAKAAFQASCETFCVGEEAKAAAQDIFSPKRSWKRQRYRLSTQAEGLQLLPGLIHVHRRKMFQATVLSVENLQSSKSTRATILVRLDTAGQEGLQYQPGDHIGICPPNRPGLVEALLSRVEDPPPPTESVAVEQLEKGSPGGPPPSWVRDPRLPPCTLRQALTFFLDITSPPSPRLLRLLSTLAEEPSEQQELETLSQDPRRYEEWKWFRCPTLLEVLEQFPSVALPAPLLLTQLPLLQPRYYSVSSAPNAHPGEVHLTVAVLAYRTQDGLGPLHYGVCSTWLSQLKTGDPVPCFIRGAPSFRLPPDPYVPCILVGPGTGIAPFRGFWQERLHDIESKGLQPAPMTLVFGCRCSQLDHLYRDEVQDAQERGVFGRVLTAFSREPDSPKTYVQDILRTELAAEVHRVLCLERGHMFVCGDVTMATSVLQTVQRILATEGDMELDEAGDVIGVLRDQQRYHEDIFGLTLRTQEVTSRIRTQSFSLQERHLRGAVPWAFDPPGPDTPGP

endothelial nitric oxide synthase (eNOS), purified, unphosphorylated (from UniProt P29473 1-1205) (enzyme)
Kd [1]: 80 nM
Kd [2]: 100 nM
kon [2]: 150000 M⁻¹ s⁻¹
Kd [3]: 0.05 to 0.1 nM
half time of the initial association component [4]: 10 s
k1 (pseudo first order forward rate, first step) at 26 nM eNOS [5]: 0.0025 s⁻¹
k1 (pseudo first order forward rate, first step) at 77 nM eNOS [5]: 0.0008 s⁻¹
k1 (pseudo first order forward rate, first step) at 232 nM eNOS [5]: 0.03 s⁻¹
k1 (pseudo first order forward rate, first step) at 696 nM eNOS [5]: 0.1 s⁻¹
k2 (reverse rate, first step) at 26 nM eNOS [5]: 0.01 s⁻¹
k2 (reverse rate, first step) at 77 nM eNOS [5]: 0.01 s⁻¹
k2 (reverse rate, first step) at 232 nM eNOS [5]: 0.01 s⁻¹
k2 (reverse rate, first step) at 696 nM eNOS [5]: 0.01 s⁻¹
k3 (forward rate, second step) at 26 nM eNOS [5]: 0.0002 s⁻¹
k3 (forward rate, second step) at 77 nM eNOS [5]: 0.006 s⁻¹
k3 (forward rate, second step) at 232 nM eNOS [5]: 0.0002 s⁻¹
k3 (forward rate, second step) at 696 nM eNOS [5]: 0.006 s⁻¹
k4 (reverse rate, second step) at 26 nM eNOS [5]: 0.001 s⁻¹
k4 (reverse rate, second step) at 77 nM eNOS [5]: 0.001 s⁻¹
k4 (reverse rate, second step) at 232 nM eNOS [5]: 0.001 s⁻¹
k4 (reverse rate, second step) at 696 nM eNOS [5]: 0.001 s⁻¹
kon [6]: 130000 M⁻¹ s⁻¹
percent of the rapid phase binding dissociated in buffer [7]: 25%

neuronal nitric oxide synthase (nNOS) (from UniProt P29476 1-1429) (enzyme)
fold slower binding than eNOS [8]: 30 fold
